These results are taken from patent US9289506B2, “Surface binding of nanoparticle based drug delivery to tissue” (Massachusetts Institute of Technology, priority 2013, dated 2016).

Data set [1] can be described thus: Net charge of Avidin estimated using Donnan equilibrium. The class given is physicochemical. Conditions: assuming uptake entirely due to Donnan partitioning, no binding. The source says:
However, it is not certain whether the effective charge sensed during transport and uptake would include all these residues, or whether certain residues may be internal and less accessible to charge-charge interactions within the cartilage extracellular matrix. In addition, the unknown extent of Avidin glycosylation may contribute additional net negative charge that would decrease the total net charge. However, this estimate assumes that all such residues are ionized in aqueous solution and that none of these residues are internal (buried) and thereby inaccessible to charge-charge interactions within the cartilage matrix. Furthermore, this estimate neglects the effects of Avidin glycosylation which could add additional negative charge groups to the total sum. […]
[formula] (Byun et al., Arch Biochem Biophys, 2010) was measured to be, −0.13 M. Rearranging Eq. (12) gives: […]
Donnan theory (Grodzinsky et al., New York: Garland Science, 2011) is based on the assumptions that (1) all freely moving charged species (i.e., Avidin and bath ions) will partition into a charged tissue according to Boltzmann statistics and, (2) the net charge in the tissue is zero by electroneutrality (i.e., the sum of the tissue fixed charge density and mobile carrier concentrations). By fitting the Donnan theory to the equilibrium uptake data of FIG. 12A, the effective net charge of Avidin was calculated to be +6.2. […]

Data set [2] in a line: Dose dependent biological response to Avidin in bovine cartilage explants (viability, sGAG loss, biosynthesis). The class given is cell-based. Here is the method:
Briefly, cylindrical cartilage disks (3 mm) were cored using a dermal punch and then sliced to obtain the top 1 mm of cartilage with intact superficial zone. Cartilage disks for all treatment groups were matched for depth and location along the joint surface. They were equilibrated in serum free medium (low glucose Dulbecco's Modified Eagle's Medium [DMEM; 1 g/L]) supplemented with 10 mM HEPES buffer, 0.1 mM nonessential amino acids, 0.4 mM proline, […] ascorbic acis, 100 units/ml penicillin G, 100 µg/ml streptomycin and […] amphotericin B (all from Sigma Aldrich, MO) for 48 h in a 5% CO2 incubator at 37° C. prior to any treatment. […] The medium was changed every 2 days without replenishing Avidin. This simulated the in-vivo condition of one time Avidin injection. The experiment was conducted for three time periods: 2, 4 and 10 days. Upon termination of culture at these time points, 100-200 μm thick slices were cut from the center of disks from each treatment condition. The slices were immediately stained for 2-3 minutes in the dark with fluorescein diacetate (FDA; 4 mg/ml in PBS) and propidium iodide (PI; 40 mg/ml in PBS) (both from Sigma Aldrich, MO). FDA was used to stain the viable cells green, while PI stained the non-viable cells red. The slices were washed with PBS and then imaged using Nikon fluorescence microscope with a 4× objective. Two days before the termination of culture of day 4 and day 10 experiments, the medium was supplemented with 5 μCi/mL [^35S]-sulfate and 10 μCi/mL [^3H]-proline (both from PerkinElmer, Norwalk, Conn.). […] The wet weight was measured for each disk and then digested with proteinase K (Roche, Indianapolis, Minn.) overnight. The cumulative sGAG content in the medium and digested explants was measured using the DMMB assay. The amount of radiolabel in each digested sample and medium standards (^35S and ^3H) were measured using a liquid scintillation counter. Radiolabeled concentration was calculated from the standards and then normalized to the wet weight.

For “Avidin: positively charged globular glycosylated tetrameric protein, pI 10.5, 66 kDa, diameter ~7 nm (Invitrogen); SEQ ID NO 1”, the “upper estimate of effective net charge” value in data set [1] is on record as “+13 to +14”. In data set [2] (100 nM and 1 μM, 4 and 10 days), the “cumulative sGAG loss to medium vs untreated control” value is “no significant difference”. Also, the “cumulative sGAG loss to medium” value in data set [2] (100 μM, 4 days) is reported as 14.6%; in data set [2] (100 μM, 10 days), 20%. In data set [2] (100 μM, both 4 and 10 days), the “increase in sGAG loss compared to untreated control” value is recorded as “about 2 folds”. Also, in data set [2] (increasing dose 0-100 μM, last 48 h of culture), the “rate of protein and sGAG synthesis” value is “no significant changes”. The “chondrocyte viability (live-dead fluorescence)” value in data set [2] (one time dose 0-100 μM, 2, 4 and 10 days) is recorded as “no significant difference in cell viability”. Also, the safe dose result in data set [2] (one time dose, bovine cartilage explants) is given as “at least 1 μM”.
